The values below come from doi:10.1101/541805.

In the assay the target is rat Kv2.2-GFP (rat) (UniProt Q63099).

Substance “GxTX-594 (guangxitoxin-1E Ser13Cys, Met35 norleucine, conjugated to Alexa 594) (from UniProt P84835 1-36) (peptide)” showed a Pearson correlation coefficient (colocalization with GFP) of 0.8.
